These are literature values, as cited in patent publication US20240293553A1, “P-SELECTIN INHIBITORS AND USES THEREOF” (Beth Israel Deaconess Medical Center, Inc., priority 2021, published 2024).

In one series the target is T1, P-selectin (Homo sapiens, UniProt P16109).
T1 sequence (P16109 42-830): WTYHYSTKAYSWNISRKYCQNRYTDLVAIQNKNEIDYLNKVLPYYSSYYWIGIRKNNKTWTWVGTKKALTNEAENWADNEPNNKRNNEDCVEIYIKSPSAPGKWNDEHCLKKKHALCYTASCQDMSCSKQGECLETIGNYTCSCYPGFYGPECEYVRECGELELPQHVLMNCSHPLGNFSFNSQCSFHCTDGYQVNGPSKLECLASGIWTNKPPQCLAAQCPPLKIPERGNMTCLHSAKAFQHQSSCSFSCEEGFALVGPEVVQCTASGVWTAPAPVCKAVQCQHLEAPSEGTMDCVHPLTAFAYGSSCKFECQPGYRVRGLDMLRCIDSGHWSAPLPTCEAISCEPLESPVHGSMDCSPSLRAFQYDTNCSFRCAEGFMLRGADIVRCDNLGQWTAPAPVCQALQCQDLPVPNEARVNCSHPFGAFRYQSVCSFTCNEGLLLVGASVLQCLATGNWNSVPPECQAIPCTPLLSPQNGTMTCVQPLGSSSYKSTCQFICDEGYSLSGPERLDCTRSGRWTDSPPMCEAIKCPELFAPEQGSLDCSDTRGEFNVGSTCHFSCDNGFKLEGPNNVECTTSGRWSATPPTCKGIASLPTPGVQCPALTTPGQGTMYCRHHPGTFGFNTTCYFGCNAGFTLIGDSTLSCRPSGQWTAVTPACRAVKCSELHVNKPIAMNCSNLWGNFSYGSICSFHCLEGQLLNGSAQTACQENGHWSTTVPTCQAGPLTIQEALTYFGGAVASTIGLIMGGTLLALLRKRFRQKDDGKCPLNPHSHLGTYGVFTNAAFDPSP
The settings on record: reported values.

The conditions of series [1]: literature values.

“And” between values parts separate entries of the source, which are not always exact repeats. Equal values may be shown once.

B1: PSGL-1: P-selectin glycoprotein ligand-1, glycoprotein expressed on the surface of all leukocytes; native ligand of P-selectin (protein, UniProt Q14242 42-412, looked up)
P-selectin glycoprotein …: QATEYEYLDYDFLPETEPPEMLRNSTDTTPLTGPGTPESTTVEPAARRSTGLDAGGAVTELTTELANMGNLSTDSAAMEIQTTQPAATEAQTTQPVPTEAQTTPLAATEAQTTRLTATEAQTTPLAATEAQTTPPAATEAQTTQPTGLEAQTTAPAAMEAQTTAPAAMEAQTTPPAAMEAQTTQTTAMEAQTTAPEATEAQTTQPTATEAQTTPLAAMEALSTEPSATEALSMEPTTKRGLFIPFSVSSVTHKGIPMAASNLSVNYPVGAPDHISVKQCLLAILILALVATIFFVCTVVLAVRLSRKGHMYPVRNYSPTEMVCISSLLPDGGEGPSATANGGLSKAKSPGLTPEPREDREGDDLTLHSFLP
For the molecule B1, in the series with P-selectin, the dissociation constant Kd (commonly the equilibrium constant for the complex coming apart) was 73 nM and 70 to 300 nM.

B2: crizanlizumab: anti-P-selectin mAb approved for the treatment of sickle cell disease (antibody, chains of the INN, looked up, V domains shown)
VH: QVQLVQSGAEVKKPGASVKVSCKVSGYTFTSYDINWVRQAPGKGLEWMGWIYPGDGSIKYNEKFKGRVTMTVDKSTDTAYMELSSLRSEDTAVYYCARRGEYGNYEGAMDYWGQGTLVTVSS
VL: DIQMTQSPSSLSASVGDRVTITCKASQSVDYDGHSYMNWYQQKPGKAPKLLIYAASNLESGVPSRFSGSGSGTDFTLTISSLQPEDFATYYCQQSDENPLTFGGGTKVEIK
Turning to B2, the t1/2 in series [1] is given as 10.6 days.
